Measured values as given in patent US20150246136A1 (Bayer, published 2015).

B1: Example 77, conjugate of anti-mesothelin antibody MF-Ta (antibody, human IgG1, lambda, V domains shown)
VH: QVELVQSGAEVKKPGESLKISCKGSGYSFTSYWIGWVRQAPGKGLEWMGIIDPGDSRTRYSPSFQGQVTISADKSISTAYLQWSSLKASDTAMYYCARGQLYGGTYMDGWGQGTLVTVSS
VL: DIALTQPASVSGSPGQSITISCTGTSSDIGGYNSVSWYQQHPGKAPKLMIYGVNNRPSGVSNRFSGSKSGNTASLTISGLQAEDEADYYCSSYDIESATPVFGGGTKLTVLG
modifications: toxophore-linker on Cys sulfur, sites not given
B2: Example 89, conjugate of anti-mesothelin antibody MF-Ta (antibody, human IgG1, lambda, V domains shown)
VH: B1 VH
VL: B1 VL
modifications: toxophore-linker on Cys sulfur, sites not given
B3: Example 79, conjugate of anti-mesothelin antibody MF-Ta (antibody, human IgG1, lambda, V domains shown)
VH: B1 VH
VL: B1 VL
modifications: toxophore-linker on Cys sulfur, sites not given
B4: Example 99, conjugate of anti-mesothelin antibody MF-Ta (antibody, human IgG1, lambda, V domains shown)
VH: B1 VH
VL: B1 VL
modifications: toxophore-linker on Cys sulfur, sites not given
B5: Example 87, conjugate of anti-mesothelin antibody MF-Ta (antibody, human IgG1, lambda, V domains shown)
VH: B1 VH
VL: B1 VL
modifications: toxophore-linker on Lys NH, sites not given
B6: Example 104, conjugate of anti-mesothelin antibody MF-Ta (antibody, human IgG1, lambda, V domains shown)
VH: B1 VH
VL: B1 VL
modifications: toxophore-linker on Lys NH, sites not given
B7: Example 110, conjugate of anti-mesothelin antibody MF-Ta (antibody, human IgG1, lambda, V domains shown)
VH: B1 VH
VL: B1 VL
modifications: toxophore-linker on Cys sulfur, sites not given
B8: Example 114, conjugate of anti-mesothelin antibody MF-Ta (antibody, human IgG1, lambda, V domains shown)
VH: B1 VH
VL: B1 VL
modifications: toxophore-linker on Cys sulfur, sites not given
B9: Example 85, conjugate of anti-mesothelin antibody MF-Ta (antibody, human IgG1, lambda, V domains shown)
VH: B1 VH
VL: B1 VL
modifications: toxophore-linker on Cys sulfur, sites not given
B10: Example 131, conjugate of anti-mesothelin antibody MF-Ta (antibody, human IgG1, lambda, V domains shown)
VH: B1 VH
VL: B1 VL
modifications: toxophore-linker on Cys sulfur, sites not given
B11: Example 92, conjugate of anti-mesothelin antibody MF-Ta (antibody, human IgG1, lambda, V domains shown)
VH: B1 VH
VL: B1 VL
modifications: toxophore-linker on Cys sulfur, sites not given
B12: Example 101, conjugate of anti-mesothelin antibody MF-Ta (antibody, human IgG1, lambda, V domains shown)
VH: B1 VH
VL: B1 VL
modifications: toxophore-linker on Cys sulfur, sites not given
B13: Example 81, conjugate of anti-mesothelin antibody MF-Ta (antibody, human IgG1, lambda, V domains shown)
VH: B1 VH
VL: B1 VL
modifications: toxophore-linker on Cys sulfur, sites not given
B14: Example 102, conjugate of anti-mesothelin antibody MF-Ta (antibody, human IgG1, lambda, V domains shown)
VH: B1 VH
VL: B1 VL
modifications: toxophore-linker on Lys NH, sites not given
B15: Example 115, conjugate of anti-mesothelin antibody MF-Ta (antibody, human IgG1, lambda, V domains shown)
VH: B1 VH
VL: B1 VL
modifications: toxophore-linker on Cys sulfur, sites not given
B16: Example 94, conjugate of anti-mesothelin antibody MF-Ta (antibody, human IgG1, lambda, V domains shown)
VH: B1 VH
VL: B1 VL
modifications: toxophore-linker on Cys sulfur, sites not given
B17: Example 130, conjugate of anti-mesothelin antibody MF-Ta (antibody, human IgG1, lambda, V domains shown)
VH: B1 VH
VL: B1 VL
modifications: toxophore-linker on Cys sulfur, sites not given
B18: Example 98, conjugate of anti-mesothelin antibody MF-Ta (antibody, human IgG1, lambda, V domains shown)
VH: B1 VH
VL: B1 VL
modifications: toxophore-linker on Cys sulfur, sites not given
B19: Example 106, conjugate of anti-mesothelin antibody MF-Ta (antibody, human IgG1, lambda, V domains shown)
VH: B1 VH
VL: B1 VL
modifications: toxophore-linker on Cys sulfur, sites not given
B20: Example 88, conjugate of anti-mesothelin antibody MF-Ta (antibody, human IgG1, lambda, V domains shown)
VH: B1 VH
VL: B1 VL
modifications: toxophore-linker on Cys sulfur, sites not given
B21: Example 109, conjugate of anti-mesothelin antibody MF-Ta (antibody, human IgG1, lambda, V domains shown)
VH: B1 VH
VL: B1 VL
modifications: toxophore-linker on Cys sulfur, sites not given
B22: Example 111, conjugate of anti-mesothelin antibody MF-Ta (antibody, human IgG1, lambda, V domains shown)
VH: B1 VH
VL: B1 VL
modifications: toxophore-linker on Cys sulfur, sites not given
B23: Example 86, conjugate of anti-mesothelin antibody MF-Ta (antibody, human IgG1, lambda, V domains shown)
VH: B1 VH
VL: B1 VL
modifications: toxophore-linker on Cys sulfur, sites not given
B24: Example 95, conjugate of anti-mesothelin antibody MF-Ta (antibody, human IgG1, lambda, V domains shown)
VH: B1 VH
VL: B1 VL
modifications: toxophore-linker on Cys sulfur, sites not given
B25: Example 80, conjugate of anti-mesothelin antibody MF-Ta (antibody, human IgG1, lambda, V domains shown)
VH: B1 VH
VL: B1 VL
modifications: toxophore-linker on Cys sulfur, sites not given
B26: Example 113, conjugate of anti-mesothelin antibody MF-Ta (antibody, human IgG1, lambda, V domains shown)
VH: B1 VH
VL: B1 VL
modifications: toxophore-linker on Lys NH, sites not given
B27: Example 96, conjugate of anti-mesothelin antibody MF-Ta (antibody, human IgG1, lambda, V domains shown)
VH: B1 VH
VL: B1 VL
modifications: toxophore-linker on Cys sulfur, sites not given
B28: Example 100, conjugate of anti-mesothelin antibody MF-Ta (antibody, human IgG1, lambda, V domains shown)
VH: B1 VH
VL: B1 VL
modifications: toxophore-linker on Cys sulfur, sites not given
B29: Example 91, conjugate of anti-mesothelin antibody MF-Ta (antibody, human IgG1, lambda, V domains shown)
VH: B1 VH
VL: B1 VL
modifications: toxophore-linker on Cys sulfur, sites not given
B30: Example 83, conjugate of anti-mesothelin antibody MF-Ta (antibody, human IgG1, lambda, V domains shown)
VH: B1 VH
VL: B1 VL
modifications: toxophore-linker on Cys sulfur, sites not given
B31: Example 97, conjugate of anti-mesothelin antibody MF-Ta (antibody, human IgG1, lambda, V domains shown)
VH: B1 VH
VL: B1 VL
modifications: toxophore-linker on Cys sulfur, sites not given
B32: Example 78, conjugate of anti-mesothelin antibody MF-Ta (antibody, human IgG1, lambda, V domains shown)
VH: B1 VH
VL: B1 VL
modifications: toxophore-linker on Cys sulfur, sites not given
B33: Example 108, conjugate of anti-mesothelin antibody MF-Ta (antibody, human IgG1, lambda, V domains shown)
VH: B1 VH
VL: B1 VL
modifications: toxophore-linker on Cys sulfur, sites not given
B34: Example 132, conjugate of anti-mesothelin antibody MF-Ta (antibody, human IgG1, lambda, V domains shown)
VH: B1 VH
VL: B1 VL
modifications: toxophore-linker on Lys NH, sites not given
B35: Example 82, conjugate of anti-mesothelin antibody MF-Ta (antibody, human IgG1, lambda, V domains shown)
VH: B1 VH
VL: B1 VL
modifications: toxophore-linker on Cys sulfur, sites not given
B36: Example 105, conjugate of anti-mesothelin antibody MF-Ta (antibody, human IgG1, lambda, V domains shown)
VH: B1 VH
VL: B1 VL
modifications: toxophore-linker on Lys NH, sites not given
B37: Example 84, conjugate of anti-mesothelin antibody MF-Ta (antibody, human IgG1, lambda, V domains shown)
VH: B1 VH
VL: B1 VL
modifications: toxophore-linker on Lys NH, sites not given
B38: Example 93, conjugate of anti-mesothelin antibody MF-Ta (antibody, human IgG1, lambda, V domains shown)
VH: B1 VH
VL: B1 VL
modifications: toxophore-linker on Lys NH, sites not given
B39: Example 133, conjugate of anti-mesothelin antibody MF-Ta (antibody, human IgG1, lambda, V domains shown)
VH: B1 VH
VL: B1 VL
modifications: toxophore-linker on Cys sulfur, sites not given
B40: Example 112, conjugate of anti-mesothelin antibody MF-Ta (antibody, human IgG1, lambda, V domains shown)
VH: B1 VH
VL: B1 VL
modifications: toxophore-linker on Cys sulfur, sites not given
B41: Example 107, conjugate of anti-mesothelin antibody MF-Ta (antibody, human IgG1, lambda, V domains shown)
VH: B1 VH
VL: B1 VL
modifications: toxophore-linker on Cys sulfur, sites not given
B42: Example 129, conjugate of anti-mesothelin antibody MF-Ta (antibody, human IgG1, lambda, V domains shown)
VH: B1 VH
VL: B1 VL
modifications: toxophore-linker on Cys sulfur, sites not given
B43: Example 103, conjugate of anti-mesothelin antibody MF-Ta (antibody, human IgG1, lambda, V domains shown)
VH: B1 VH
VL: B1 VL
modifications: toxophore-linker on Cys sulfur, sites not given
B44: Example 90, conjugate of anti-mesothelin antibody MF-Ta (antibody, human IgG1, lambda, V domains shown)
VH: B1 VH
VL: B1 VL
modifications: toxophore-linker on Cys sulfur, sites not given

The binders below were run against Mesothelin (SwissProt reference Q13421-3) (Homo sapiens, UniProt Q13421 37-622) (assay: cell-based or functional assay).

| IC50 (nM), HT29 meso+ cells, MTT proliferation assay [nM] | Binder |
| --- | --- |
| 0.8 | B1 |
| 0.06 | B2 |
| 0.5 | B3 |
| 0.27 | B4 |
| 0.9 | B5 |
| 1.8 | B6 |
| 0.002 | B7 |
| 0.6 | B8 |
| 0.2 | B9 |
| 0.09 | B10 |
| 38 | B11 |
| 3 | B12 |
| 0.02 | B13 |
| 7.2 | B14 |
| 0.06 | B15 |
| 0.6 | B16 |
| 0.13 | B17 |
| 1.7 | B18 |
| 0.8 | B19 |
| 0.01 | B20 |
| 0.09 | B21 |
| 0.7 | B22 |

| IC50 (nM), HT29 meso+ cells, MTT proliferation assay [nM] | Binder |
| --- | --- |
| 0.45 | B23 |
| 0.013 | B24 |
| 4.4 | B25 |
| 0.4 | B26 |
| 25 | B27 |
| 2 | B28 |
| 0.35 | B29 |
| 0.3 | B30 |
| 0.2 | B31 |
| 1.1 | B32 |
| 0.74 | B33 |
| 3.3 | B34 |
| 24 | B35 |
| 0.6 | B36 |
| 6 | B37 |
| 52 | B38 |
| 2.1 | B39 |
| 0.018 | B40 |
| 3 | B41 |
| 5.3 | B42 |
| 10 | B43 |
| 2.6 | B44 |
